Laboratory results taken from paper PMC3515695 (Nature structural & molecular biology, 2012).

Target: the molecule itself
Assay: SAXS

B1: full-length Caenorhabditis elegans TDP2 (enzyme, UniProt Q9XWG3 1-362, looked up)
chain: MSNSDDEIQEIEAKRQKMSQEDSEVEIEILDEPEQGKLKNSSMSDEQKLHEFAIITATDEAFAQSILQDVDWDLKKALDVFYGSEAFAEARSAAVMGASSSMASSGAAVMTAEDLKGFEVSVMSWNIDGLDGRSLLTRMKAVAHIVKNVNPDILFLQEVVDRDLAPIDKLQSLYKIYYSNKGCQYYTAILVSKMFDVEKHDVIHFQNSGMYRTLQILEGSIGGLKVFLLNTHLESTREHRPQRCAQFGFCMDKVREIIAQNPGALVFFGGDLNLRDEEVSRVPDGVKDAWEAAGSDNKTKFTWDTFKNDNKQGFHGAKMRFDRLYWSGPLDKVKFTLEGRQRIRSCLCFPSDHWAINATFFA
stoichiometry N: 2
